{
  "source": "patent US20090098588A1",
  "molecules": {"B1": {"name": "Sauvagine (peptide, UniProt P01144 1-40, looked up)", "peptide": "QGPPISIDLSLELLRKMIEIEKQEKEKQQAANNRLLLDTI"}, "B2": {"name": "CCL22 (ligand, UniProt O00626 25-93, looked up)", "chain": "GPYGANMEDSVCCRDYVRYRLPLRVVKHFYWTSDSCPRPGVVLLTFRDKEICADPRVPWVKMILNKLSQ"}, "B3": {"name": "TIP39 (peptide, UniProt Q96A98 62-100, looked up)", "peptide": "SLALADDAAFRERARLLAALERRHWLNSYMHKLLVLDAP"}, "B4": {"name": "Somatostatin-28 (peptide, UniProt P61278 89-116, looked up)", "peptide": "SANSNPAMAPRERKAGCKNFFWKTFTSC"}},
  "test_in_all_cases": "cell-based or functional assay",
  "key": {"PTHR2 fused to PK2": {"target": "PTHR2 fused to PK2 (UniProt P49190)", "sequence (P49190 whole entry, the tested form may be a part)": "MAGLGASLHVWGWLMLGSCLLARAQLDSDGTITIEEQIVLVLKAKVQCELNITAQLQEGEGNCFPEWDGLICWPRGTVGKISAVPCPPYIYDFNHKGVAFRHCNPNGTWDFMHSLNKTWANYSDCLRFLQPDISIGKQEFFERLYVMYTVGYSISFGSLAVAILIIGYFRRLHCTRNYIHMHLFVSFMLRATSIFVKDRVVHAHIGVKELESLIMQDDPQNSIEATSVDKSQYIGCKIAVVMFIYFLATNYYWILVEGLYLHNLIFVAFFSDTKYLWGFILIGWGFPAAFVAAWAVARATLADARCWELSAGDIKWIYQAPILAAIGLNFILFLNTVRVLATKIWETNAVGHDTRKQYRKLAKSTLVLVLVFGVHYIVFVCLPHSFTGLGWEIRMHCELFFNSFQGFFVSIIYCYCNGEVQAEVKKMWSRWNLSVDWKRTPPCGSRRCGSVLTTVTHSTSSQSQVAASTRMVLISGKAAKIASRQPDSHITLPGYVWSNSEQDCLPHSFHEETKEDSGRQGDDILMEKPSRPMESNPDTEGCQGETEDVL"}, "MC3R fused to PK2": {"target": "MC3R fused to PK2 (UniProt P41968)", "sequence (P41968 whole entry, the tested form may be a part)": "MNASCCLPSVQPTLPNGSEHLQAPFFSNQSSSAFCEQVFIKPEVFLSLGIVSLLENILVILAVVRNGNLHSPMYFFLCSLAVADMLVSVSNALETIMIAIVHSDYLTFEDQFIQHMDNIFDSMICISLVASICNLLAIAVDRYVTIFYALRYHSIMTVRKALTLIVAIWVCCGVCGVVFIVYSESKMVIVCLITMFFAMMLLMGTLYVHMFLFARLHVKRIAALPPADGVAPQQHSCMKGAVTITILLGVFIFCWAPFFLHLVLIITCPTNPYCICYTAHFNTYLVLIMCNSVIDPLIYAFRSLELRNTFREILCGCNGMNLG"}, "CCR6 fused to PK2": {"target": "T1, CCR6 fused to PK2 (UniProt P51684)", "T1 sequence (P51684 whole entry, species assumed, looked up)": "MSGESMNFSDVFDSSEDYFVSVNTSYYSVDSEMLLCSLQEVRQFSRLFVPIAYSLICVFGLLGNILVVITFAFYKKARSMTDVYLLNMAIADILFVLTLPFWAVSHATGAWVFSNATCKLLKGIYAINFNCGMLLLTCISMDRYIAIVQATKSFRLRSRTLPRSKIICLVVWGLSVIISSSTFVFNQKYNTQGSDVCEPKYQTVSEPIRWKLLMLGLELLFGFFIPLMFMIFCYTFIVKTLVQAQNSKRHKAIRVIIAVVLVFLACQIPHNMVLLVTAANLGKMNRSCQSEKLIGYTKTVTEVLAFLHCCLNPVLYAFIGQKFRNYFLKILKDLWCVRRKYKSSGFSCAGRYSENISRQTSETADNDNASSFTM"}, "CCR6 fused to PK1": {"target": "T2, CCR6 fused to PK1 (UniProt P51684)", "T2 sequence (looked up)": "T1 sequence (P51684 whole entry, species assumed, looked up)"}, "SALPR fused to PK2": {"target": "SALPR fused to PK2 (UniProt Q9NSD7)", "sequence (Q9NSD7 whole entry, the tested form may be a part)": "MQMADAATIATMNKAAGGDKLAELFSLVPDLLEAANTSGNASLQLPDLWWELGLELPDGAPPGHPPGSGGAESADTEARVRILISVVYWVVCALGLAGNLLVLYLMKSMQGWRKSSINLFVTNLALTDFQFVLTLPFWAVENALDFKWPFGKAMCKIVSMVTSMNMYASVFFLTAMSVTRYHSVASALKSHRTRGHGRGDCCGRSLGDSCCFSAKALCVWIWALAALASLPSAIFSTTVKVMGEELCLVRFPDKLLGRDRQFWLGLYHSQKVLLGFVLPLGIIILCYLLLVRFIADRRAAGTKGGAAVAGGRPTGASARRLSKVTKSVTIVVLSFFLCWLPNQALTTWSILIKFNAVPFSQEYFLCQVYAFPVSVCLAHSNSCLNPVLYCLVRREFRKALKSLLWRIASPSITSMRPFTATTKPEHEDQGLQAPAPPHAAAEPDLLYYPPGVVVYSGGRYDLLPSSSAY"}, "SSTR1 fused to PK1": {"target": "SSTR1 fused to PK1 (UniProt P30872)", "sequence (P30872 whole entry, the tested form may be a part)": "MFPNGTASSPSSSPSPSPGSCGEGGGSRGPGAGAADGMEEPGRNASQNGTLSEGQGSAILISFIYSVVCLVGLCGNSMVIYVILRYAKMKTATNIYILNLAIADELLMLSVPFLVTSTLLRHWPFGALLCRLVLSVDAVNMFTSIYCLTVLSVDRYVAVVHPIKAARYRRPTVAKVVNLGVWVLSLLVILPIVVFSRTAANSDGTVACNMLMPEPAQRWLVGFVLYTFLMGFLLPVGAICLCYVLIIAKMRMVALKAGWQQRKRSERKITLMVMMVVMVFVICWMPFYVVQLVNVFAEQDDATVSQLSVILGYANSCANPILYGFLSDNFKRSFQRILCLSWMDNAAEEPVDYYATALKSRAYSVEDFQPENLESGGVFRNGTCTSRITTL"}, "CRHR2 fused to PK2": {"target": "T3, CRHR2 fused to PK2 (UniProt Q13324)", "T3 sequence (Q13324 whole entry, species assumed, looked up)": "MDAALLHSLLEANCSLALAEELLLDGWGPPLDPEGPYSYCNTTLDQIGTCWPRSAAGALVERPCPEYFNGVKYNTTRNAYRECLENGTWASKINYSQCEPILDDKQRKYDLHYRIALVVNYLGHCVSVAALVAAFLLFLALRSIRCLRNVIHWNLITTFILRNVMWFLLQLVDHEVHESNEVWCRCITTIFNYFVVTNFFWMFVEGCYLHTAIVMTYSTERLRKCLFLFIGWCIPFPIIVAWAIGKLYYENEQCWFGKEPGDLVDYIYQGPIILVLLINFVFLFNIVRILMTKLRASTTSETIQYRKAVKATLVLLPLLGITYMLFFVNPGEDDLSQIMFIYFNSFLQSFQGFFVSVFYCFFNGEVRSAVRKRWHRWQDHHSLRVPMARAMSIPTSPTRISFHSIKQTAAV"}, "CRHR2 fused to PK1": {"target": "T4, CRHR2 fused to PK1 (UniProt Q13324)", "T4 sequence (looked up)": "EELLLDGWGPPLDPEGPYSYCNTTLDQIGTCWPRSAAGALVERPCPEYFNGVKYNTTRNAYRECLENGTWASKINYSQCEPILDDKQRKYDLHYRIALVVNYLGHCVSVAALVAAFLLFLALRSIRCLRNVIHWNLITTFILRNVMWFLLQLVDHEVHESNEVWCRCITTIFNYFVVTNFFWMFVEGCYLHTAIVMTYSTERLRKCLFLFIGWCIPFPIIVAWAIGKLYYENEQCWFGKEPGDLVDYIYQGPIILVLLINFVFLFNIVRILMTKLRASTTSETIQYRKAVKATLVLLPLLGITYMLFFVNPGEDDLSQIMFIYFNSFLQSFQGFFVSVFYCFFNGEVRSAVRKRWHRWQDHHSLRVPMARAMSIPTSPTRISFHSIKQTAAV"}, "CCR4 fused to PK1": {"target": "T5, CCR4 fused to PK1 (UniProt P51679)", "T5 sequence (looked up)": "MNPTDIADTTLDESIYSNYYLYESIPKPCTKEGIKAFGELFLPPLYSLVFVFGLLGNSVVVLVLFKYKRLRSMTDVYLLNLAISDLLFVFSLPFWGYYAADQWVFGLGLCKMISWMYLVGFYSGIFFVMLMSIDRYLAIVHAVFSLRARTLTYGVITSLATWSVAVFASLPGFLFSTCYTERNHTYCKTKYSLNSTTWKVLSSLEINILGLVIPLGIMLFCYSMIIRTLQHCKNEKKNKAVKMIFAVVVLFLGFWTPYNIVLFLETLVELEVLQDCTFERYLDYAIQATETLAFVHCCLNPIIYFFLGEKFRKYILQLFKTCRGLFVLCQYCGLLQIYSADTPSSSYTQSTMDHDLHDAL"}, "CCR4 fused to PK2": {"target": "T6, CCR4 fused to PK2 (UniProt P51679)", "T6 sequence (P51679 whole entry, species assumed, looked up)": "T5 sequence (looked up)"}, "SSTR1 fused to PK2": {"target": "SSTR1 fused to PK2 (UniProt P30872)", "sequence (P30872 whole entry, the tested form may be a part)": "as the sequence (P30872 whole entry, the tested form may be a part) above"}, "SSTR4 fused to PK2": {"target": "SSTR4 fused to PK2 (UniProt P31391)", "sequence (P31391 whole entry, the tested form may be a part)": "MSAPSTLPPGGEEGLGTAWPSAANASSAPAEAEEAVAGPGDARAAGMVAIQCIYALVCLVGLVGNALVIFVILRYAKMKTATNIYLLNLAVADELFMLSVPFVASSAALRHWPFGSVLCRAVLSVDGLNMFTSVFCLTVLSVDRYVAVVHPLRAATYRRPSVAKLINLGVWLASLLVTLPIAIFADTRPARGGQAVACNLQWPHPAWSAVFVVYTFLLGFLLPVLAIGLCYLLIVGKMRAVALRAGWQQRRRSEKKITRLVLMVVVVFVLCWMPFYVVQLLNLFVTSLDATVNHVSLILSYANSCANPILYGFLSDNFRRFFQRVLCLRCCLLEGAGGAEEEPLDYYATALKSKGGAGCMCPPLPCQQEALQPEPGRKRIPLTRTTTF"}, "SSTR4 fused to PK1": {"target": "SSTR4 fused to PK1 (UniProt P31391)", "sequence (P31391 whole entry, the tested form may be a part)": "as above"}},
  "data": [
    {"molecule": "PTH (1-34) (from UniProt P01270 32-65) (peptide)", "values": [
      {"measurement": "Fold induct. (arrestin recruitment, beta-galactosidase EFC, saturating ligand)", "setting": "PTHR2 fused to PK2", "value": 72.9, "unit": "fold"}
    ]},
    {"molecule": "aMSH (from UniProt P01189 138-150) (peptide)", "values": [
      {"measurement": "Fold induct. (arrestin recruitment, beta-galactosidase EFC, saturating ligand)", "setting": "MC3R fused to PK2", "value": 3.2, "unit": "fold"}
    ]},
    {"molecule": "CCL20 (from UniProt P78556 27-96) (ligand)", "values": [
      {"measurement": "Fold induct. (arrestin recruitment, beta-galactosidase EFC, saturating ligand)", "setting": "CCR6 fused to PK2", "value": 6.5, "unit": "fold"},
      {"measurement": "Fold induct. (arrestin recruitment, beta-galactosidase EFC, saturating ligand)", "setting": "CCR6 fused to PK1", "value": 1.4, "unit": "fold"}
    ]},
    {"molecule": "Relaxin-3 (from UniProt Q8WXF3 26-142) (ligand)", "values": [
      {"measurement": "Fold induct. (arrestin recruitment, beta-galactosidase EFC, saturating ligand)", "setting": "SALPR fused to PK2", "value": 1.8, "unit": "fold"}
    ]},
    {"molecule": "TYR-SRIF14 (peptide)", "values": [
      {"measurement": "Fold induct. (arrestin recruitment, beta-galactosidase EFC, saturating ligand)", "setting": "SSTR1 fused to PK1", "value": 1, "unit": "fold"}
    ]},
    {"molecule": "B1", "values": [
      {"measurement": "Fold induct. (arrestin recruitment, beta-galactosidase EFC, saturating ligand)", "setting": "CRHR2 fused to PK2", "value": 17.4, "unit": "fold"},
      {"measurement": "Fold induct. (arrestin recruitment, beta-galactosidase EFC, saturating ligand)", "setting": "CRHR2 fused to PK1", "value": 13.1, "unit": "fold"}
    ]},
    {"molecule": "B2", "values": [
      {"measurement": "Fold induct. (arrestin recruitment, beta-galactosidase EFC, saturating ligand)", "setting": "CCR4 fused to PK1", "value": 18.9, "unit": "fold"},
      {"measurement": "Fold induct. (arrestin recruitment, beta-galactosidase EFC, saturating ligand)", "setting": "CCR4 fused to PK2", "value": 3, "unit": "fold"}
    ]},
    {"molecule": "B3", "values": [
      {"measurement": "Fold induct. (arrestin recruitment, beta-galactosidase EFC, saturating ligand)", "setting": "PTHR2 fused to PK2", "value": 2.8, "unit": "fold"}
    ]},
    {"molecule": "B4", "values": [
      {"measurement": "Fold induct. (arrestin recruitment, beta-galactosidase EFC, saturating ligand)", "setting": "SSTR1 fused to PK1", "value": 1.2, "unit": "fold"},
      {"measurement": "Fold induct. (arrestin recruitment, beta-galactosidase EFC, saturating ligand)", "setting": "SSTR1 fused to PK2", "value": 1.3, "unit": "fold"},
      {"measurement": "Fold induct. (arrestin recruitment, beta-galactosidase EFC, saturating ligand)", "setting": "SSTR4 fused to PK2", "value": 1.6, "unit": "fold"},
      {"measurement": "Fold induct. (arrestin recruitment, beta-galactosidase EFC, saturating ligand)", "setting": "SSTR4 fused to PK1", "value": 1.3, "unit": "fold"}
    ]}
  ]
}
